Assay results taken from US20140120115A1 (MorphoSys, published 2014).

B1: MOR014093 (antibody, V domains shown)
VH: QVQLLESGGGLVQPGGSLRLSCAASGFTFSDYYMDWVRQAPGKGLEWVSAISSSGSTTYYADSVKGRFTISRDNSKNTLYLQMNSLRAEDTAVYYCARGNLFGSTYVMGFDHWGQGTLVTVSS
VL: DIELTQPPSVSVSPGQTASITCSGDSIGSTHVSWYQQKPGQAPVLVIYRKSNRPSGIPERFSGSNSGNTATLTISGTQAEDEADYYCSSWDSESVVFGGGTKLTVLG
notes: also called antibody A
B2: MOR014138 (antibody, V domains shown)
VH: QVQLVQSGAEVKKPGSSVKVSCKASGGTFTSYAIHWVRQAPGQGLEWMGRIIPHFGTAYYAQKFQGRVTITADESTSTAYMELSSLRSEDTAVYYCARVQVYMSVLGWGYENYMDVWGQGTLVTVSS
VL: DIVLTQSPATLSLSPGERATLSCRASQSVSAFQLGWYQQKPGQAPRLLIYGASTRATGIPARFSGSGSGTDFTLTISSLEPEDFAVYYCQQYIQYPYTFGQGTKVEIKR
notes: also called antibody C
B3: MOR014116 (antibody, V domains shown)
VH: QVQLVQSGAEVKKPGSSVKVSCKASGGTFSDYAISWVRQAPGQGLEWMGLIIPLFGTANYAQKFQGRVTITADESTSTAYMELSSLRSEDTAVYYCARSPAYQLVTPYYYVSDWFDVWGQGTLVTVSS
VL: DIVLTQPPSVSGAPGQRVTISCSGSSSNIGSNYVSWYQQLPGTAPKLLIYDNSERPSGVPDRFSGSKSGTSASLAITGLQAEDEADYYCQSWDASPWSYVFGGGTKLTVLG
notes: also called antibody B

Columns and labels:
[1] = target: T1, recombinant human macrophage migration inhibitory factor (MIF) (human, UniProt P14174 2-115, biotinylated (Amersham ECL Protein Biotinylation kit; sites not stated)); experiment: ELISA, antibody at 6.25 nM on recombinant MIF (FIG. 2)
T1 construct: also called human MIF; biotinylated MIF
T1 sequence (P14174 2-115 limits assumed): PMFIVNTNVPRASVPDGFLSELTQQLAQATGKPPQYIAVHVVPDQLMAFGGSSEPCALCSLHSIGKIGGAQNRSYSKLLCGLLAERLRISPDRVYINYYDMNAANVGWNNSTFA
Procedure: (§1) Cross-reactivity of antibodies to human MIF and human D-DT was determined by ELISA. Biotinylated recombinant human MIF or D-DT with a concentration of 1 μg/ml were coated on reacti-bind neutravidin coated black 384-well plates (Thermo Scientifc) for 1, 5 h at room temperature. Reacti-bind neutravidin plates had been pretreated with PBS/5% skim milk powder before. After washing with PBST purified IgGs were applied in a concentration of 6.25 nM on a MIF or a D-DT coated plate respectively and incubated for 2 hours at room temperature. After subsequent washing antigen-specific bound IgG was detected via AP-Goat-anti-human IgG Fc-γ fragment specific (Fa Jackson ImmunoResearch) secondary antibody and application of Attophos (Fa ROCHE) according to the manufacturer's manual. Fluorescence intensity was measured via Tecan Reader GeniosPro and fluorescence intensity for the individual clones was compared to control antibody.

[2] = target: T2, recombinant human D-dopachrome tautomerase (D-DT) (human, UniProt P30046 2-118, biotinylated (Amersham ECL Protein Biotinylation kit; sites not stated)); experiment: ELISA, antibody at 6.25 nM on recombinant D-DT (FIG. 2)
T2 construct: Used biotinylated on neutravidin plates; also called human D-DT
T2 sequence (P30046 2-118 limits assumed): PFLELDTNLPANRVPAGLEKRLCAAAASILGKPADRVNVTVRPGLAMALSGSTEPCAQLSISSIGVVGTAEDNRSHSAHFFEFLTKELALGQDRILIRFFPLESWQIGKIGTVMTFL
Procedure: as §1

[3] = target: T2, recombinant human D-dopachrome …; experiment: ELISA; upper end of the group's range, tied to A on D-DT by Table 2
Procedure: (§2) For further characterization, the EC₅₀ concentration for each of the cross-reactive antibodies to MIF and to D-DT was determined based on the ELISA setting according to Example 1. Concentrations of each of the individual antibodies were titrated and 8 distinct concentrations from 0 nM to 166 nM were applied side by side on a plate coated with MIF and a plate coated with D-DT. Biotinylated recombinant human MIF or D-DT with a concentration of 1 μg/ml were coated on reacti-bind neutravidin coated black 384-well plates (Thermo Scientifc) for 1, 5 h at room temperature. Reacti-bind neutravidin plates had been pretreated with PBS/5% skim milk powder before. After washing with PBST purified IgGs were added to the MIF or D-DT coated plate respectively and incubated for 2 hours at room temperature. After subsequent washing antigen-specific bound IgG was detected via AP-Goat-anti-human IgG Fc-γ fragment specific (Fa Jackson ImmunoResearch) secondary antibody and application of Attophos (Fa ROCHE) according to the manufacturer's manual. Fluorescence intensity was measured via Tecan Reader GeniosPro and fluorescence intensity for the individual clones was plotted in a typical antibody titration curve. EC₅₀ values were determined with the program GraphPad Prism using non-linear regression analysis.

[4] = target: T1, recombinant human macrophage migration …; experiment: ELISA, IgG at 6.25 nM on biotinylated human MIF on neutravidin plate
Procedure: as §1

[5] = target: T2, recombinant human D-dopachrome …; experiment: ELISA, IgG at 6.25 nM on biotinylated human D-DT on neutravidin plate
Procedure: as §1

[6] = target: T1, recombinant human macrophage migration …; experiment: ELISA, IgG titrated (0-166 nM) on biotinylated human MIF on neutravidin plate
Procedure: as §2

[7] = target: T2, recombinant human D-dopachrome …; experiment: ELISA, IgG titrated (0-166 nM) on biotinylated human D-DT on neutravidin plate
Procedure: as §2

[8] = target: T1, recombinant human macrophage migration …; experiment: ELISA; lower end of the group's range, tied to C on MIF by Table 2
Procedure: as §2

Row | Binder | fold fluorescence intensity above background [1] [fold] | fold fluorescence intensity above background [2] [fold] | EC50 [3] [nM] | fold signal intensity compared to the negative control [4] [fold] | fold signal intensity compared to the negative control [5] [fold] | EC50 [6] [nM] | EC50 [7] [nM] | EC50 [8] [nM]
1 | B1 | > 5 | > 5 | 22 | ≥ 5 | ≥ 5 | 1.14 | 21.2 | –
2 | B2 | > 5 | > 5 | – | ≥ 5 | ≥ 5 | 0.36 | 2.29 | 0.3
3 | B3 | > 5 | > 5 | – | ≥ 5 | ≥ 5 | 0.486 | 8.47 | –
